Source: patent US20210102933

Tests used:
[1] = tested on: T1, FRET peptide substrate EDANS-A-L-E-V-L-F-Q/G-P-K-DABCYL
T1 sequence: ALEVLFXPK

**Q.** For human rhinovirus 3C protease, which “fluorescent signal upon cleavage of the FRET peptide substrate in microwells (18 hours, 100 µg/mL peptide)” value [1] is on record?
**A.** The secreted enzyme successfully cleaved the substrate, resulting in a fluorescent signal

**Q.** For trypsin, which “fluorescent signal in trypsin cleavage assay in microwells (0.5 µg/ml trypsin, 10 µg/ml FTC-casein, 1 and 18 hours)” value (FTC-casein) is on record?
**A.** the intensity of the observed fluorescent signal was dependent on the time of incubation

**Q.** What about the “fluorescent signal in trypsin cleavage assay in microwells (0.05, 0.5 and 5 µg/ml trypsin, 10 µg/ml FTC-casein, 1 hour)” value (FTC-casein) of the same substance?
**A.** the intensity of the observed fluorescent signal was dependent on the concentration of trypsin in the microwells
